# Experimental data published in patent US20200277383A1 (DRAGONFLY THERAPEUTICS, published 2020).
# B1: A49-F4-TriNKET-MT110 (other)
# heavy 1: EVQLLEQSGAELVRPGTSVKISCKASGYAFTNYWLGWVKQRPGHGLEWIGDIFPGSGNIHYNEKFKGKATLTADKSSSTAYMQLSSLTFEDSAVYFCARLRNWDEPMDYWGQGTTVTVSSASTKGPSVFPLAPSSKSTSGGTAALGCLVKDYFPEPVTVSWNSGALTSGVHTFPAVLQSSGLYSLSSVVTVPSSSLGTQTYICNVNHKPSNTKVDKKVEPKSCDKTHTCPPCPAPELLGGPSVFLFPPKPKDTLMISRTPEVTCVVVDVSHEDPEVKFNWYVDGVEVHNAKTKPREEQYNSTYRVVSVLTVLHQDWLNGKEYKCKVSNKALPAPIEKTISKAKGQPREPRVYTLPPCRDELTKNQVSLTCLVKGFYPSDIAVEWESNGQPENNYKTTPPVLVSDGSFTLYSKLTVDKSRWQQGNVFSCSVMHEALHNHYTQKSLSLSPGSGSGGGGSDIQMTQSPSSVSASVGDRVTITCRASQGISSWLAWYQQKPGKAPKLLIYAASSLQSGVPSRFSGSGSGTDFTLTISSLQPEDFATYYCQQGVSFPRTFGCGTKVEIKGGGGSGGGGSGGGGSGGGGSEVQLVESGGGLVKPGGSLRLSCAASGFTFSSYSMNWVRQAPGKCLEWVSSISSSSSYIYYADSVKGRFTISRDNAKNSLYLQMNSLRAEDTAVYYCARGAPMGAAAGWFDPWGQGTLVTVSS
# heavy 2: EVQLLEQSGAELVRPGTSVKISCKASGYAFTNYWLGWVKQRPGHGLEWIGDIFPGSGNIHYNEKFKGKATLTADKSSSTAYMQLSSLTFEDSAVYFCARLRNWDEPMDYWGQGTTVTVSSASTKGPSVFPLAPSSKSTSGGTAALGCLVKDYFPEPVTVSWNSGALTSGVHTFPAVLQSSGLYSLSSVVTVPSSSLGTQTYICNVNHKPSNTKVDKKVEPKSCDKTHTCPPCPAPELLGGPSVFLFPPKPKDTLMISRTPEVTCVVVDVSHEDPEVKFNWYVDGVEVHNAKTKPREEQYNSTYRVVSVLTVLHQDWLNGKEYKCKVSNKALPAPIEKTISKAKGQPREPQVCTLPPSRDELTENQVSLTCLVKGFYPSDIAVEWESNGQPENNYKTTPPVLDSDGSFFLYSWLTVDKSRWQQGNVFSCSVMHEALHNHYTQKSLSLSPG
# light: ELVMTQSPSSLTVTAGEKVTMSCKSSQSLLNSGNQKNYLTWYQQKPGQPPKLLIYWASTRESGVPDRFTGSGSGTDFTLTISSVQAEDLAVYYCQNDYSYPLTFGAGTKLEIKGRTVAAPSVFIFPPSDEQLKSGTASVVCLLNNFYPREAKVQWKVDNALQSGNSQESVTEQDSKDSTYSLSSTLTLSKADYEKHKVYACEVTHQGLSSPVTKSFNRGEC
# notes: also called EPCAM-targeting F4-TriNKET
# B2: parental monoclonal antibody (mAb) targeting EPCAM (clone MT110) (antibody, V domains shown)
# VH: VQLLEQSGAELVRPGTSVKISCKASGYAFTNYWLGWVKQRPGHGLEWIGDIFPGSGNIHYNEKFKGKATLTADKSSSTAYMQLSSLTFEDSAVYFCARLRNWDEPMDYWGQGTTVTVSS
# VL: ELVMTQSPSSLTVTAGEKVTMSCKSSQSLLNSGNQKNYLTWYQQKPGQPPKLLIYWASTRESGVPDRFTGSGSGTDFTLTISSVQAEDLAVYYCQNDYSYPLTFGAGTKLEIKG
# notes: detected with an anti-human IgG secondary antibody; also called parental mAb; Solitomab (MT110)
# Biological target: T1, EpCAM expressed on human cancer cell lines (H747, HCC827, HCT116) (human (human cancer cell lines), UniProt P16422 24-314)
# T1 construct: also called Epithelial cell adhesion molecule; cell expressed EPCAM
# T1 sequence: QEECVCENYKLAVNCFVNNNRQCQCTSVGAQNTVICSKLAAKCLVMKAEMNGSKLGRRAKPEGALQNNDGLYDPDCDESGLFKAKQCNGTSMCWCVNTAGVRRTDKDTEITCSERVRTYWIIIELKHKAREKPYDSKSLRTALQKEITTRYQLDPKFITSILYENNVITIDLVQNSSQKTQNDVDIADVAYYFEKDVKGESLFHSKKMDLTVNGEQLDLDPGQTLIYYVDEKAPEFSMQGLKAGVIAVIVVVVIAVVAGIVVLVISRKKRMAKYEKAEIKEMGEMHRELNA
# Assay: flow cytometry on H747 cells, MFI fold over background
# Description: Human cancer cell lines expressing EPCAM were used to assess tumor antigen binding of TriNKETs derived from EPCAM targeting clone MT110 in F4 and F3′ formats. The human cell lines H747, HCC827 and HCT116 were used to assess binding of TriNKETs and mAb to cell expressed EPCAM. TriNKETs or mAb were diluted and incubated with the respective cells. Binding was detected using a fluorophore conjugated anti-human IgG secondary antibody. Cells were analyzed by flow cytometry, binding MFI to cell expressed EPCAM was normalized to human recombinant IgG1 stained controls to obtain fold over background values.
binder,measurement,value
B1,binding result,binds
B2,binding result,binds
